Assay results as given in patent US20230322953A1 (HARBOUR BIOMED SHANGHAI, published 2023).

Legend:
[1] = biological target: T1, human PD-L1 on cells (CHO-K1/hPDL1; MDA-MB-231) (human, UniProt Q9NZQ7 19-290); assay: FACS, CHO-K1/hPDL1 cells (Experiment 2)
T1 construct: whole, on cells

[2] = biological target: T1, human PD-L1 on cells (CHO-K1/hPDL1; …); assay: competition FACS: biotinylated PD-1 to CHO-K1/hPDL1 cells
[3] = biological target: T2, human CTLA4 on cells (CHO-K1/hCTLA4; HEK293/hCTLA4; 293F-hCTLA4) (human, UniProt P16410 36-223); assay: competition FACS: biotinylated B7-1-Fc to CHO-K1/hCTLA4 cells (Test 2)
T2 construct: whole, on cells
T2 sequence (P16410 36-223): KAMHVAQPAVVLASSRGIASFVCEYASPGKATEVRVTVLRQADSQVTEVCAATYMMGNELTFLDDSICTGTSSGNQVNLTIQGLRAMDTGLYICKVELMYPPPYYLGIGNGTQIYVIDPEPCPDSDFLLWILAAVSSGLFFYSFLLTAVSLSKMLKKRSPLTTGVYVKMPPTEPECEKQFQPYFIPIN

[4] = biological target: T2, human CTLA4 on cells (CHO-K1/hCTLA4; …); assay: FACS, CHO-K1/hCTLA4 cells (Test 2)
[5] = biological target: T1, human PD-L1 on cells (CHO-K1/hPDL1; …); assay: competition FACS: biotinylated PD-1 to CHO-K1/hPDL1 cells (Experiment 2)
[6] = biological target: T1, human PD-L1 on cells (CHO-K1/hPDL1; …); assay: FACS, MDA-MB-231 cells
[7] = biological target: T2, human CTLA4 on cells (CHO-K1/hCTLA4; …); assay: FACS, HEK293/hCTLA4 cells
[8] = biological target: T3, human CTLA4 on CHO-K1/hCTLA4 cells (human, UniProt P16410 36-223); assay: flow cytometry on CHO-K1/hCTLA4 cells, Experiment 1
T3 construct: whole, on cells; CHO-K1 cell line highly expressing human CTLA4; also called human CTLA4 cell
T3 sequence (P16410 36-223): as above

T1 sequence (Q9NZQ7 19-290): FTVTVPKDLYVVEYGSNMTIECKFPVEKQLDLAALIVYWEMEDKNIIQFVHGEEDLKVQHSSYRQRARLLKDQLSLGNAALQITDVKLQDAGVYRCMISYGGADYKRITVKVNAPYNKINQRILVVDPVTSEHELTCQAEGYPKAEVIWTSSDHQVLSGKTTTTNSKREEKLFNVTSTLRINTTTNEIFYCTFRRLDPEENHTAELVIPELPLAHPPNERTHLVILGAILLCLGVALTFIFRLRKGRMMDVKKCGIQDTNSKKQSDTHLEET

Binder	EC50 [1] [nM]	Maximum MFI [1] [MFI]	fold poorer IC50 than the parent monoclonal antibody [2] [fold]	IC50 [3] [nM]	Maximum inhibition rate (%) [3] [%]	EC50 [4] [nM]	Maximum MFI [4] [MFI]	IC50 [5] [nM]	Maximum inhibition rate (%) [5] [%]	EC50 [6] [nM]	Maximum MFI [6] [MFI]	EC50 [7] [nM]	Maximum MFI [7] [MFI]	EC50 [8] [nM]	Maximum MFI [8] [MFI]
PR001574 (bispecific antibody, human IgG1, kappa, PD-L1×CTLA4, structure 4) EVQLVESGGGLIQPGGSLRLSCAVSGFTVSKNYMSWVRQAPGKGLEWVSVVYSGGSKTYADSVKGRFTISRDNSKNTLYLQMNSLRAEDTAVYYCARAVPHSPSSFDIWGQGTMVTVSSKLEPKSSDKTHTPPPPPRTDIQMTQSPSTLSASVGDRVTVTCRASQSIYIWLAWYQQKPGKAPNLLIYKASSLETGVPSRFSGSGSGTEFTLTISSLQPDDFATYYCQQYYGSSRTFGQGTKVEIKRTVAAPSVFIFPPSDEQLKSGTASVVCLLNNFYPREAKVQWKVDNALQSGNSQESVTEQDSKDSTYSLSSTLTLSKADYEKHKVYACEVTHQGLSSPVTKSFNRGEC heavy: not shown	0.93	6710	2 to 3	4.49	99.8	12	677	0.88	81.1	–	–	–	–	–	–
PR001577 (bispecific antibody, human IgG1, kappa, PD-L1×CTLA4, structure 4, Fc S239D, I332E) EVQLVESGGGLIQPGGSLRLSCAVSGFTVSKNYMSWVRQAPGKGLEWVSVVYSGGSKTYADSVKGRFTISRDNSKNTLYLQMNSLRAEDTAVYYCARAVPHSPSSFDIWGQGTMVTVSSKLEPKSSDKTHTPPPPPRTDIQMTQSPSTLSASVGDRVTVTCRASQSIYIWLAWYQQKPGKAPNLLIYKASSLETGVPSRFSGSGSGTEFTLTISSLQPDDFATYYCQQYYGSSRTFGQGTKVEIKRTVAAPSVFIFPPSDEQLKSGTASVVCLLNNFYPREAKVQWKVDNALQSGNSQESVTEQDSKDSTYSLSSTLTLSKADYEKHKVYACEVTHQGLSSPVTKSFNRGEC heavy: not shown	0.96	6610	2 to 3	4.88	99.7	8.52	585	0.61	81	–	–	–	–	–	–
PR001575 (bispecific antibody, human IgG1, kappa, PD-L1×CTLA4, structure 9) chain 1: EVQLVESGGGLIQPGGSLRLSCAVSGFTVSKNYMSWVRQAPGKGLEWVSVVYSGGSKTYADSVKGRFTISRDNSKNTLYLQMNSLRAEDTAVYYCARAVPHSPSSFDIWGQGTMVTVSSKLEPKSSDKTHTPPPPPRTDIQMTQSPSTLSASVGDRVTVTCRASQSIYIWLAWYQQKPGKAPNLLIYKASSLETGVPSRFSGSGSGTEFTLTISSLQPDDFATYYCQQYYGSSRTFGQGTKVEIKRTVAAPSVFIFPPSDEQLKSGTASVVCLLNNFYPREAKVQWKVDNALQSGNSQESVTEQDSKDSTYSLSSTLTLSKADYEKHKVYACEVTHQGLSSPVTKSFNRGEC chain 2: not shown	2.41	5880	4 to 6	3.79	100	5.08	415	1.74	81.7	–	–	–	–	–	–
PR001572 (bispecific antibody, human IgG1, kappa, PD-L1×CTLA4, structure 9 2×VH-IgG) chain 1: EVQLVESGGGLIQPGGSLRLSCAVSGFTVSKNYMSWVRQAPGKGLEWVSVVYSGGSKTYADSVKGRFTISRDNSKNTLYLQMNSLRAEDTAVYYCARAVPHSPSSFDIWGQGTMVTVSSKLEPKSSDKTHTPPPPPRTDIQMTQSPSTLSASVGDRVTVTCRASQSIYIWLAWYQQKPGKAPNLLIYKASSLETGVPSRFSGSGSGTEFTLTISSLQPDDFATYYCQQYYGSSRTFGQGTKVEIKRTVAAPSVFIFPPSDEQLKSGTASVVCLLNNFYPREAKVQWKVDNALQSGNSQESVTEQDSKDSTYSLSSTLTLSKADYEKHKVYACEVTHQGLSSPVTKSFNRGEC chain 2: not shown	1.07	5830	4 to 6	2.98	100	2.91	434	1.4	80.7	–	–	–	–	–	–
PR001609 (bispecific antibody, human IgG1, kappa, PD-L1×CTLA4, structure 11 Fab-Fc-VH, knob/hole) light: DIQMTQSPSTLSASVGDRVTVTCRASQSIYIWLAWYQQKPGKAPNLLIYKASSLETGVPSRFSGSGSGTEFTLTISSLQPDDFATYYCQQYYGSSRTFGQGTKVEIKRTVAAPSVFIFPPSDEQLKSGTASVVCLLNNFYPREAKVQWKVDNALQSGNSQESVTEQDSKDSTYSLSSTLTLSKADYEKHKVYACEVTHQGLSSPVTKSFNRGEC heavy: not shown EVQLVESGGGLIQPGGSLRLSCAVSGFTVSKNYMSWVRQAPGKGLEWVSVVYSGGSKTYADSVKGRFTISRDNSKNTLYLQMNSLRAEDTAVYYCARAVPHSPSSFDIWGQGTMVTVSSEPKSSDKTHTCPPCPAPELLGGPSVFLFPPKPKDTLMISRTPEVTCVVVDVSHEDPEVKFNWYVDGVEVHNAKTKPREEQYNSTYRVVSVLTVLHQDWLNGKEYKCKVSNKALPAPIEKTISKAKGQPREPQVCTLPPSREEMTKNQVSLSCAVKGFYPSDIAVEWESNGQPENNYKTTPPVLDSDGSFFLVSKLTVDKSRWQQGNVFSCSVMHEALHNHYTQKSLSLSPGK	1.51	11200	4 to 5	98.3	95	–	355	1.12	81.6	–	–	–	–	–	–
PR001610 (bispecific antibody, human IgG1, kappa, PD-L1×CTLA4, structure 11, knob/hole, DE) light: DIQMTQSPSTLSASVGDRVTVTCRASQSIYIWLAWYQQKPGKAPNLLIYKASSLETGVPSRFSGSGSGTEFTLTISSLQPDDFATYYCQQYYGSSRTFGQGTKVEIKRTVAAPSVFIFPPSDEQLKSGTASVVCLLNNFYPREAKVQWKVDNALQSGNSQESVTEQDSKDSTYSLSSTLTLSKADYEKHKVYACEVTHQGLSSPVTKSFNRGEC heavy: not shown EVQLVESGGGLIQPGGSLRLSCAVSGFTVSKNYMSWVRQAPGKGLEWVSVVYSGGSKTYADSVKGRFTISRDNSKNTLYLQMNSLRAEDTAVYYCARAVPHSPSSFDIWGQGTMVTVSSEPKSSDKTHTCPPCPAPELLGGPDVFLFPPKPKDTLMISRTPEVTCVVVDVSHEDPEVKFNWYVDGVEVHNAKTKPREEQYNSTYRVVSVLTVLHQDWLNGKEYKCKVSNKALPAPEEKTISKAKGQPREPQVCTLPPSREEMTKNQVSLSCAVKGFYPSDIAVEWESNGQPENNYKTTPPVLDSDGSFFLVSKLTVDKSRWQQGNVFSCSVMHEALHNHYTQKSLSLSPGK	1.37	11100	4 to 5	96.6	61.3	–	468	1.23	80.2	–	–	–	–	–	–
PR000402 (bispecific antibody, human IgG1, kappa, L234A L235A, PD-L1×CTLA4, structure 5) light: DIQMTQSPSTLSASVGDRVTVTCRASQSIYIWLAWYQQKPGKAPNLLIYKASSLETGVPSRFSGSGSGTEFTLTISSLQPDDFATYYCQQYYGSSRTFGQGTKVEIKRTVAAPSVFIFPPSDEQLKSGTASVVCLLNNFYPREAKVQWKVDNALQSGNSQESVTEQDSKDSTYSLSSTLTLSKADYEKHKVYACEVTHQGLSSPVTKSFNRGEC EVQLVESGGGLVQPGGSLRLSCAASGFTFSSYWMSWVRQAPGKGLEWVANIKQEGSEKYYVDSVKGRFTISRDNAKNSLYLQMNSLRAEDTAVYYCARDRAVAGAFDIWGQGTMVTVSSASTKGPSVFPLAPSSKSTSGGTAALGCLVKDYFPEPVTVSWNSGALTSGVHTFPAVLQSSGLYSLSSVVTVPSSSLGTQTYICNVNHKPSNTKVDKKVEPKSCDKTHTCPPCPAPEAAGGPSVFLFPPKPKDTLMISRTPEVTCVVVDVSHEDPEVKFNWYVDGVEVHNAKTKPREEQYNSTYRVVSVLTVLHQDWLNGKEYKCKVSNKALGAPIEKTISKAKGQPREPQVYTLPPSREEMTKNQVSLTCLVKGFYPSDIAVEWESNGQPENNYKTTPPVLDSDGSFFLYSKLTVDKSRWQQGNVFSCSVMHEALHNHYTQKSLSLSPGKLGGGGSGGGGSGGGGSRTEVQLVESGGGLIQPGGSLRLSCAVSGFTVSKNYMSWVRQAPGKGLEWVSVVYSGGSKTYADSVKGRFTISRDNSKNTLYLQMNSLRAEDTAVYYCARAVPHSPSSFDIWGQGTMVTVSS	–	–	–	–	–	–	–	–	–	0.259	841	2.4	1760	–	–
HER2xCTLA4 bispecific antibody molecule PR000916 (bispecific antibody, human IgG1, kappa, Structure 11 Fab-Fc-VH (bivalent asymmetric); PR000210 Fab (normal), one PR000184 VH) light: not shown heavy: not shown EVQLVESGGGLIQPGGSLRLSCAVSGFTVSKNYMSWVRQAPGKGLEWVSVVYSGGSKTYADSVKGRFTISRDNSKNTLYLQMNSLRAEDTAVYYCARAVPHSPSSFDIWGQGTMVTVSSEPKSSDKTHTCPPCPAPELLGGPSVFLFPPKPKDTLMISRTPEVTCVVVDVSHEDPEVKFNWYVDGVEVHNAKTKPREEQYNSTYRVVSVLTVLHQDWLNGKEYKCKVSNKALPAPIEKTISKAKGQPREPQVCTLPPSREEMTKNQVSLSCAVKGFYPSDIAVEWESNGQPENNYKTTPPVLDSDGSFFLVSKLTVDKSRWQQGNVFSCSVMHEALHNHYTQKSLSLSPGK	–	–	–	–	–	–	–	–	–	–	–	–	–	4.68	151
HER2xCTLA4 bispecific antibody molecule PR000917 (bispecific antibody, human IgG1, kappa, Structure 11 Fab-Fc-VH; PR000210 Fab (normal), one PR000184 VH; DE: S239D, I332E) light: not shown heavy: not shown EVQLVESGGGLIQPGGSLRLSCAVSGFTVSKNYMSWVRQAPGKGLEWVSVVYSGGSKTYADSVKGRFTISRDNSKNTLYLQMNSLRAEDTAVYYCARAVPHSPSSFDIWGQGTMVTVSSEPKSSDKTHTCPPCPAPELLGGPDVFLFPPKPKDTLMISRTPEVTCVVVDVSHEDPEVKFNWYVDGVEVHNAKTKPREEQYNSTYRVVSVLTVLHQDWLNGKEYKCKVSNKALPAPEEKTISKAKGQPREPQVCTLPPSREEMTKNQVSLSCAVKGFYPSDIAVEWESNGQPENNYKTTPPVLDSDGSFFLVSKLTVDKSRWQQGNVFSCSVMHEALHNHYTQKSLSLSPGK	–	–	–	–	–	–	–	–	–	–	–	–	–	9.8	142
